Laboratory results reported in the nanobody polyreactivity screen of Harvey et al. (2022).

Assay: yeast display, Sf9 membrane polyspecificity reagent, FACS + sequencing; frameworks hold sequencing errors
Outline: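 Genes from sorted yeast were amplified by colony PCR, read by MiSeq 2 × 250 sequencing and filtered on CDR length. These cells carried a synthetic nanobody library in Saccharomyces cerevisiae BJ5465 and were sorted by FACS into low and high (top ~1%) gates on anti-HA and streptavidin fluorescence. Polyreactivity is labelled according to the gate of origin.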

For “QVQLVESGGGLVQAGGSLRLSCAASGSIFFRYAMGWYRQATGKERELVARISWGGGRTYYADSVKGRFTISRDNAKNTVYLQMNSLKPEDTAVYYCNRAYWVNPGGFEYWGQGTQVTVSS”, the “polyreactivity (PSR sort gate)” value was “high polyreactivity”.

In the case of “QVQLVESGGGLVQAGGSLRLSCAASGSIFFSNAMGWYRQAPGKERELVAAITSTGGSTYYADSVKGRFTISRDTAKNTVYLQLNSLKPEDTAVYYCAAASRRGYYYWGQGTQVTVSS”, the “polyreactivity (PSR sort gate)” value is reported as “high polyreactivity”.

With “QVQLVESGGGLVQAGGSLRLSCAASGSIFFSNAMGWYRQAPGKERELVASISRDVSTNYADSVKGRFTISRDNAKNTVYLQMTSLKPEDTAVYYCAKRYYRYYYITYNGSHYGYWGQGTQVTVSS” the “polyreactivity (PSR sort gate)” value was “low polyreactivity”.

In the case of “QVQLVESGGGLVQAGGSLRLSCAASGSIFFTYAMGWYRQAPGKERELVAAISGVVSTYYADSVKGRFTISRDNAKNTVYLQMNSLKPEDTAVYYCAADYSWTGFGWEYDYWGQGTQVNVSS”, the “polyreactivity (PSR sort gate)” value is reported as “low polyreactivity”.

With “QVQLVESGGGLVQAGGSLRLSCAASGSIFFVNAMAWYRQAPGKERESVAGITGGGSTYYADSVKGRFTISRDNAKNTVYLQMNSLKPEDTAVYYCNKKAYRKTGMDYWGQGTQVTVSS” the “polyreactivity (PSR sort gate)” value was “low polyreactivity”.

For “QVQLVESGGGLVQAGGSLRLSCAASGSIFFVYAMGWYRQAPGKERELVAGIRWSGGRTSYADSVKGRFTISRDNAKNTVYLQMNSLNPEDTAVYYCAADPRSYFTSEYWGQGTQVTVSS”, the “polyreactivity (PSR sort gate)” value was “high polyreactivity”.

In the case of “QVQLVESGGGLVQAGGSLRLSCAASGSIFFVYAMGWYTQAPGKERELVAGIRWSGGRTSYADSVKGRFTISRDNAKNTVYLQMNSLNQEDTAVYYCAAGCGVLPQQHYYYRYDYWGQGTQVTVSS”, the “polyreactivity (PSR sort gate)” value is reported as “high polyreactivity”.

For “QVQLVESGGGLVQAGGSLRLSCAASGSIFFWNDMGWYRQAPGKERELVAAISWSGGSTSYADSVKGRFTISRDNAKNTVYLQMNSLKPEDTAVYYCAAEYTYGSPYDYWGQGTQVTVSS”, the “polyreactivity (PSR sort gate)” value was “low polyreactivity”.

For “QVQLVESGGGLVQAGGSLRLSCAASGSIFFYAMGWYRQAPGKERELVADITYTGGSKYADSVKGRFSISRDNAKNTVYLQMNSLKTEDTAVYYCAKLDGGLFDYWGQGTQVTVSS”, the “polyreactivity (PSR sort gate)” value was “low polyreactivity”.

With “QVQLVESGGGLVQAGGSLRLSCAASGSIFFYNTMGWYRQAPGKERELVAAISASGGRTYYADSVKGRFTISRDYSKNTVYLQMNSLKPEDTAVYYCAVRVPYRGYTRYDYWGHGTQVTVSS” the “polyreactivity (PSR sort gate)” value was “high polyreactivity”.

For “QVQLVESGGGLVQAGGSLRLSCAASGSIFFYYAMGWYRQAPGKERELVATITSGGSTSYADSVKGRFTISRDNAKNTVFLQMNSLKPEDTAVYYCAARKVTKSTYNYWGQGTQVTVSS”, the “polyreactivity (PSR sort gate)” value was “low polyreactivity”.

With “QVQLVESGGGLVQAGGSLRLSCAASGSIFFYYAMGWYSQAPGTERELVAAIRNGGSTKYADSVKGRFTISRDNAKNTVYLQMNSLKPEDTAVYYCAAGYPVTRRTIRFDYWGQGTQVTVSS” the “polyreactivity (PSR sort gate)” value was “high polyreactivity”.

With “QVQLVESGGGLVQAGGSLRLSCAASGSIFGAYAMGWSRQAPGKERELVAAISGSGTSTYYADSVKGRFTISRDNAKNTVYLQMNSLKQEDTAVYYCAADGTYFYIYLGDRFDYWGQGTQVTVSS” the “polyreactivity (PSR sort gate)” value was “low polyreactivity”.

In the case of “QVQLVESGGGLVQAGGSLRLSCAASGSIFGAYAMGWYRQAPGKERELVAAISRSGSTTYYADSVKGRFTISRDNAKNTVYLQMNSLKPEDTAVYYCAARWTRFLSSSDYYYWGQGTQVTVSS”, the “polyreactivity (PSR sort gate)” value is reported as “high polyreactivity”.

With “QVQLVESGGGLVQAGGSLRLSCAASGSIFGAYAMGWYRQAPGKERELVATITLRDGSTYYADSVKGRFTISRDNAKNTVYLQMNSLKPEDTAVSYCATYYSAINYGWSKTILYDYWGQGTQVTVSS” the “polyreactivity (PSR sort gate)” value was “low polyreactivity”.

For “QVQLVESGGGLVQAGGSLRLSCAASGSIFGDNAMGWSRQAPGKERDLVAAISSGGPTYADSVKGRFTISRDYAKNTVYLLMNSLKPEDTAVYYCNATDGMTPYDLTDIEFDYWGQGTHVTVSS”, the “polyreactivity (PSR sort gate)” value was “low polyreactivity”.

With “QVQLVESGGGLVQAGGSLRLSCAASGSIFGDNAMGWYRQAPGKERELVAAISSSGGSTYADSVKGRFTISRDNAKNTVYLQMNSLKPEDTAVYYCATQIAWGTYVINPQMDYWGQGTQVTVSS” the “polyreactivity (PSR sort gate)” value was “low polyreactivity”.

With “QVQLVESGGGLVQAGGSLRLSCAASGSIFGDNAMGWYRQAPGKERELVAAISTRGGRTYYADSVKGRFTISRDNAKNTVYLQMNSLKPEDSAVYYCATSGGRPYKYEYWGQGTQVTVSS” the “polyreactivity (PSR sort gate)” value was “high polyreactivity”.

For “QVQLVESGGGLVQAGGSLRLSCAASGSIFGDNAMGWYRQAPGKERELVATISSSDASTYYADSVKGRFTISRDNAKKTVYLQMNSLKPEDTAVYYCAAARSGGYDYWGQGTQVTVSS”, the “polyreactivity (PSR sort gate)” value was “low polyreactivity”.

In the case of “QVQLVESGGGLVQAGGSLRLSCAASGSIFGDYDMGWYRQAPGKERELVAAINRGGSTYYADSVKGRFTMSRDNAKNTVYLQMISLKPEDTAVYYCAAGYPSWYYGYAYDSWGQGTQVTVSS”, the “polyreactivity (PSR sort gate)” value is reported as “low polyreactivity”.

In the case of “QVQLVESGGGLVQAGGSLRLSCAASGSIFGEYAMGWYRQAPGKERELVADITTGGNTNYADSVKGRFTISRDNAKNTVYLQMNSLKPEDSAVYYCYAFGNTYGYWWFGYWGQGTQVTVSS”, the “polyreactivity (PSR sort gate)” value is reported as “low polyreactivity”.

In the case of “QVQLVESGGGLVQAGGSLRLSCAASGSIFGFNAMGWYRQAPGKERELVAAINNGGSTNYADSVKGRFTISRDNAKNTVYLQMNSLKPEDTAVYYCAVGTLTYEGFRTYYYWGQGTQVTVSS”, the “polyreactivity (PSR sort gate)” value is reported as “high polyreactivity”.

In the case of “QVQLVESGGGLVQAGGSLRLSCAASGSIFGFYAMGWYRQAPGKERELVAAITRSGDSTYADSVKGRFTISRDNAKNTVYLQMNSLKPEDTAVYYCATYWQYRYDYWGQGTQVTVSS”, the “polyreactivity (PSR sort gate)” value is reported as “low polyreactivity”.

With “QVQLVESGGGLVQAGGSLRLSCAASGSIFGFYAMGWYRQAPGKEREMVAAITRSGDSTYADSVKGRFTISRDNAKNTVYLQMNSLKPEDTAVYYCADDIDRSDVNSESYDYDYWGQGTQVTVSS” the “polyreactivity (PSR sort gate)” value was “low polyreactivity”.

In the case of “QVQLVESGGGLVQAGGSLRLSCAASGSIFGFYDMGWYRQAPGKERELVAAITTGGSTYYADSVKGRFTISRDNAKNTVYLQMNSLKPEDTAVYYCAKERWFPYERNDYWGQGTQVTVSA”, the “polyreactivity (PSR sort gate)” value is reported as “low polyreactivity”.

In the case of “QVQLVESGGGLVQAGGSLRLSCAASGSIFGGNAMGWYRPAPGKERELVAGISTSGGSTYYADSVKGRFTISRDNAKNTVYLQMNSLKPEDTAVYYCARGLGTYPQYWWFGTPGLDYWGQGTQVTVSS”, the “polyreactivity (PSR sort gate)” value is reported as “low polyreactivity”.

For “QVQLVESGGGLVQAGGSLRLSCAASGSIFGGNAMGWYRQAAGKERELVAAITQSGGRTYYADSVKGRFTISRDNAKNTVYLQMNSLKPEDTAVYYCNRVYKSQTTDSFPLSYYYWGQGTQVTVSS”, the “polyreactivity (PSR sort gate)” value was “high polyreactivity”.

For “QVQLVESGGGLVQAGGSLRLSCAASGSIFGGYAMGWYRQAPGKERELVARITDRGGSTDYADSVKGRFTISRDNAKNTVYLQMNSLTPEDTAVYYCAKRGDRYEKRPRDYWGQGTQVTVSS”, the “polyreactivity (PSR sort gate)” value was “low polyreactivity”.

In the case of “QVQLVESGGGLVQAGGSLRLSCAASGSIFGGYDMGWYRQAPGKESELVASISGSSSTYYADSVKGRFTISRDNAKNTVYFQMNSLKPEDTAVYYCAVDYHQAWPSADYWFEYDYWGQGTQVTVSS”, the “polyreactivity (PSR sort gate)” value is reported as “low polyreactivity”.

With “QVQLVESGGGLVQAGGSLRLSCAASGSIFGGYGMGCYRQAPGKERALVAAITSGSSTYYADSVKGRFTISRDNAKKTVYLQMPSLTPEDTAGYYCNADYAYYRDVYSPYDSWGQGTQVTVSS” the “polyreactivity (PSR sort gate)” value was “low polyreactivity”.

With “QVQLVESGGGLVQAGGSLRLSCAASGSIFGGYGMGWYRQAPGKERELVAAITSGSSTYYADSVKGRFTISRDNAKNTVYLQMNSLKAEDTAVYYCAARPYTHSAYEGDYWGRGTQVTVSS” the “polyreactivity (PSR sort gate)” value was “low polyreactivity”.

In the case of “QVQLVESGGGLVQAGGSLRLSCAASGSIFGGYGMGWYRQAPGKERELVAAITSGSSTYYADSVKGRFTISRDNAKNTVYLQMNSLKPEDTAVYNCAARPYPHSAYEGDYWGRGTQVTVSS”, the “polyreactivity (PSR sort gate)” value is reported as “low polyreactivity”.

In the case of “QVQLVESGGGLVQAGGSLRLSCAASGSIFGGYTMGWYRQAPGKERKLVAAISRRGGNTYYADSVKGRFTISRDNAKNTVYLLMNSLKPEDTAVYYCAVRWPSARIPVKLDYWGQGTQVTVSS”, the “polyreactivity (PSR sort gate)” value is reported as “high polyreactivity”.

For “QVQLVESGGGLVQAGGSLRLSCAASGSIFGINAMGWYRQAPGKERELVAAISGSTSRTYYADSVKGRFTISRDNAKNTVYLQMNSLKPEDTAVYYCAVVGLRSVTRRSYYWGQGTQVTVSS”, the “polyreactivity (PSR sort gate)” value was “high polyreactivity”.

For “QVQLVESGGGLVQAGGSLRLSCAASGSIFGISTMGWYRQAPGKERELVAAITSGDRTSYADSVKGRFTISRDNAKNTVYLQMNTLKPEDTAVYYCARDYYSYRYLRYDYWGQGTQVTVSS”, the “polyreactivity (PSR sort gate)” value was “low polyreactivity”.

For “QVQLVESGGGLVQAGGSLRLSCAASGSIFGIYAMGWYRQAPGKERELVAAISWSGGSTYYADSVKGRFTISRDNAKNTVYLQMNSLKPEDTAVYYCNADVQLFGWWYGMDYWGQGTQVTVSS”, the “polyreactivity (PSR sort gate)” value was “high polyreactivity”.

For “QVQLVESGGGLVQAGGSLRLSCAASGSIFGKNAMGWYRQAPGKERELVAAISFSGGSTYYADSVKGRFTISRDNAKNTVYLQMNSLKPEDTAVYYCAARKYSWYPAGGYDYWGQGTQVTVSS”, the “polyreactivity (PSR sort gate)” value was “high polyreactivity”.

In the case of “QVQLVESGGGLVQAGGSLRLSCAASGSIFGLYAMGWYRPAPGKEREFVATISKSGVSTYYADSVKGRFTISRDNAKNTVYLQMNSLKPEDTALYYCNADISRDNDFDYWGQGTQVTVSS”, the “polyreactivity (PSR sort gate)” value is reported as “low polyreactivity”.

For “QVQLVESGGGLVQAGGSLRLSCAASGSIFGLYAMGWYRQAAGKERELVAAISASGGSTYYADSVKGRFTISRDNAKNTVYLQMNSLKPEDTAVYYCAVKWRGGPQRGFNYWGQGTQVTVSS”, the “polyreactivity (PSR sort gate)” value was “high polyreactivity”.

In the case of “QVQLVESGGGLVQAGGSLRLSCAASGSIFGLYAMGWYRQAPGKERELVAAINQSGGSTSYADSVKGRFTISRDNAKNTVYLQMNSLKPEDTAVYYCAADSAFYTGSDYGWSDYDYWGQGTQVTVSS”, the “polyreactivity (PSR sort gate)” value is reported as “low polyreactivity”.

In the case of “QVQLVESGGGLVQAGGSLRLSCAASGSIFGLYAMGWYRQAPGKERELVAAITWSSGNTYYADSVKGRFTISRDNAKNTVYLQMYSLKPEDTAVYYCAATSVSISYRYDYWGQGTQVTVSS”, the “polyreactivity (PSR sort gate)” value is reported as “high polyreactivity”.

For “QVQLVESGGGLVQAGGSLRLSCAASGSIFGNAMGWYRPAPGKERELVAAISRRGGRTYYADSVKGRFTISRDNAKNTVYLQMNSLKPEDTAVYYCANTAKTWGWWLRGYGYWGQGTQVTVSS”, the “polyreactivity (PSR sort gate)” value was “high polyreactivity”.

In the case of “QVQLVESGGGLVQAGGSLRLSCAASGSIFGNAMGWYRQAPGKEREFVAAISSSGSSTYYADSVKGRFTISRDNAKNTVYLQMNSLKPEDTAVYYCANRRRSAAPKYDYWGQGTQVTVSS”, the “polyreactivity (PSR sort gate)” value is reported as “high polyreactivity”.
